# Data reported in patent CN108059680A (BEIJING DONGFANG BIOTECH CO LTD, dated 2018).
# T1: CD20 (UniProt P11836 1-297, limits assumed)
# T1 construct: whole, on cells; also called 细胞表面CD20; Raji细胞(过表达CD20细胞系)
# T1 sequence (looked up): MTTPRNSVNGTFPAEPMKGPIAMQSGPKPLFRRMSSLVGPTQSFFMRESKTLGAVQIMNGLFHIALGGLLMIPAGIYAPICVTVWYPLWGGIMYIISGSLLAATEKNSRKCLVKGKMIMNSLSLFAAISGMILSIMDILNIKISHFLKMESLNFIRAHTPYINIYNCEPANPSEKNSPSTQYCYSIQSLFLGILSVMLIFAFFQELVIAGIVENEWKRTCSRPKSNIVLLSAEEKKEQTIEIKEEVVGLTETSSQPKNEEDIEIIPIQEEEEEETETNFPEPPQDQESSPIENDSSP
# B1: JY052 (bispecific antibody, human IgG4 S228P, kappa)
# light: DIVMTQTPLSLPVTPGEPASISCRSSKSLLHSNGITYLYWYLQKPGQSPQLLIYQMSNLVSGVPDRFSGSGSGTDFTLKISRVEAEDVGVYYCAQNLELPYTFGGGTKVEIKRTVAAPSVFIFPPSDEQLKSGTASVVCLLNNFYPREAKVQWKVDNALQSGNSQESVTEQDSKDSTYSLSSTLTLSKADYEKHKVYACEVTHQGLSSPVTKSFNRGEC
# heavy: QVQLVQSGAEVKKPGSSVKVSCKASGYAFSYSWINWVRQAPGQGLEWMGRIFPGDGDTDYNGKFKGRVTITADKSTSTAYMELSSLRSEDTAVYYCARNVFDGYWLVYWGQGTLVTVSSASTKGPSVFPLAPCSRSTSESTAALGCLVKDYFPEPVTVSWNSGALTSGVHTFPAVLQSSGLYSLSSVVTVPSSSLGTKTYTCNVDHKPSNTKVDKRVESKYGPPCPPCPAPEFLGGPSVFLFPPKPKDTLMISRTPEVTCVVVDVSQEDPEVQFNWYVDGVEVHNAKTKPREEQFNSTYRVVSVLTVLHQDWLNGKEYKCKVSNKGLPSSIEKTISKAKGQPREPQVYVLPPSQEEMTKNQVSLLCLVKGFYPSDIAVEWESNGQPENNYLTWPPVLDSDGSFFLYSRLTVDKSRWQEGNVFSCSVMHEALHNHYTQKSLSLSLG
# chain: not shown
# notes: Three-chain bispecific: anti-CD20 light-heavy pair plus anti-CD3 single-chain Fab-Fc, joined by hinge disulfides and a knob-into-hole structure in CH3; also called 抗CD20×CD3的双特异抗体; 针对CD20和CD3的双特异性抗体
# Target: T1, CD20
# Assay: flow cytometry on Raji cells (CD20-overexpressing), Alexa488 anti-human IgG-Fc detection
binder,measurement,value
B1,binding result,binds
